Experimental data taken from the nanobody polyreactivity screen of Harvey et al. (2022).

Experiment: yeast display, Sf9 membrane polyspecificity reagent, FACS + sequencing; frameworks hold sequencing errors
Procedure, shortened: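 In a synthetic yeast display library (Saccharomyces cerevisiae BJ5465), nanobody expression was induced with galactose for 36–48 hours. FACS gates were set low and high (top ~1%) using anti-HA fluorescence for expression and streptavidin fluorescence for binding of the Sf9 membrane reagent. Each polyreactivity label is drawn from the gate of origin.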

Row | Sequence | polyreactivity (PSR sort gate)
1 | QVQLVESGGGLVQAGGSLRLSCAASGRIFAGYGMGWYRQAPGKERELVAAISSGGSTYYADSVKGRFTISRDNAKNTVYLQMNSLKPEDTAVYYCATDGQSVPDDYYQNVDYDYWGQGTQVTVSS | low polyreactivity
2 | QVQLVESGGGLVQAGGSLRLSCAASGRIFAHYAMGWYRQAPGKEMELFATISLSVGSTYYADSVKGRFTISRDNAKNTVYLQMNSLKPEDTSVYYCNATGYYATSHITYDYWGQVTQVTVSS | low polyreactivity
3 | QVQLVESGGGLVQAGGSLRLSCAASGRIFAKYAMGWYRQAPGTERELVAAISWGGGSTYYADSVKGRFTISRDNAKNTVYLQMNSLKPEDTAVYYCAARIPKQRDVRGSGMNYWGQGTQVTVSS | high polyreactivity
4 | QVQLVESGGGLVQAGGSLRLSCAASGRIFANNAMGWYRQAPGKERELVAAINWSGSRTYYADSVKGRFTISRDNAKNTVYLQMNSLNPEDTAVYYCAAVGRWGVTGSHHDAYDYWGQGTQVTVSS | high polyreactivity
5 | QVQLVESGGGLVQAGGSLRLSCAASGRIFANYAMGWYRQAPGKERELVAGITTGGSTYYADSVKGRFTISRDNAKNTVYLQMNSLKPVDTAVYYCAVRWRNRLYYYWGQGTQVTVSS | high polyreactivity
6 | QVQLVESGGGLVQAGGSLRLSCAASGRIFAPKAMGWYRQAPGKERELVATITWSGGSTYYADSVKGRFTISRDNAKNSVYLQMNSLNPEDTAVYYCAAETQIRLWSLQYRYYYWGQGTQVTVSS | low polyreactivity
7 | QVQLVESGGGLVQAGGSLRLSCAASGRIFAPYAMGWYRQAPGKERELVAAIDGSGGSTYYADSVKGRFTISRDNAKNTVYLQMNSLKPEDTAVYYCATRGSYRSQRWYGYWGQGTQVTVSS | high polyreactivity
8 | QVQLVESGGGLVQAGGSLRLSCAASGRIFAQYALGWYRQAPGKERELVAGIDRRGGSTYYADSVKGRFTISRDNAKNTVYLQMNSLKPEDTAVYYCNALREDPLFFVYIGGGYWGQGTQVTVSS | low polyreactivity
9 | QVQLVESGGGLVQAGGSLRLSCAASGRIFAQYAMGWYRQAPGKDRELVADISSGVRTYADSVKGRFTISRDNAKNTVYLQMNSLKPEDTAVYYCNAYYIIFTRNDYWGQGTQVNVSS | low polyreactivity
10 | QVQLVESGGGLVQAGGSLRLSCAASGRIFAQYAMGWYRQAPGKEREFVAAITGSTDSTYYADSVKGRFTISRDNAKNTVYLQMNSLKPEDTAVYYCAKDDAYSTIIDYEYSYDYWGQGTQVTVSS | high polyreactivity
11 | QVQLVESGGGLVQAGGSLRLSCAASGRIFARNAMGWYIQAPGKEREFVAAITHSGGNTYYADSVKGRFTISRDNAKKTVYLQMNSLKPEDTAVYYCAKEYRSTKYDYWGQGTQVTVSS | low polyreactivity
12 | QVQLVESGGGLVQAGGSLRLSCAASGRIFARNAMGWYIQAPWKERELVAAISWTGDSTYYADSVKGRFTISRDNAKNTVYLQMNSLKPEDTAVYYCNALVYHTKGDYGYWGQGTQVTVSS | low polyreactivity
13 | QVQLVESGGGLVQAGGSLRLSCAASGRIFARNAMGWYRQAPGKERELVAVITSRGGSTYYADSVKGRFTISRDNAKNTVYLQMNSLKPEDTAVYYCAARYSGEYGYWGQGTQVTVSS | high polyreactivity
14 | QVQLVESGGGLVQAGGSLRLSCAASGRIFARNAMGWYRQAPGKESELVAAINWSGGSTYYADSVKGRFTISRDNAKNTVYLQMNSLKPEDTAVYYCATRSSLFRQYLPWYEYWGQGTQVTVSS | low polyreactivity
15 | QVQLVESGGGLVQAGGSLRLSCAASGRIFASNAMGWYRPAPGKERELVAAIDQGGGSTYYADSVKGRFTISRDNAKNTVYLQMNSLKPEDTAVYYCAADYITAYPRLYNYWGQGTQVTVSS | low polyreactivity
16 | QVQLVESGGGLVQAGGSLRLSCAASGRIFASYAMGWYRQAPGKERELVAAIDRTDSTYYADSVKGRFTISRDNAKNTVYLQMNSLKPEDTAVYYCAADEYYTFSSFELRRMDYWGQGTQVTVSS | low polyreactivity
17 | QVQLVESGGGLVQAGGSLRLSCAASGRIFASYAMGWYRQAPGKERELVAAISKSGGRTYYADSVKGRFTISRDNAKNTVYLQMNSLKPEDTAVYYCAADGYRYYSWTRFSYYSGYDYWGQGTQVTVSS | high polyreactivity
18 | QVQLVESGGGLVQAGGSLRLSCAASGRIFATNAMGWYRQAPGKERELVAAISDGGGSTYYADSVKGRFTISRDNAKNTVYLQMNSLKPEDTAVYYCAARVLDWRGDIHDSEYWGQGTQVTVSS | low polyreactivity
19 | QVQLVESGGGLVQAGGSLRLSCAASGRIFATNAMGWYRQAPGKERELVATITRSAGRTYYADSVKGRFTISRDNEKNTVYLQMNILKPDVTAVYYCAADGYSTAVDDTVRYIVEYEFWGQGTQVTVSS | low polyreactivity
20 | QVQLVESGGGLVQAGGSLRLSCAASGRIFAVNAMGWYRQAHGKERELVASISRRGGTTNYADSVKGRFTISRDNAKNTVYLKMNSLIPEDTAVYYCATRGSAWGRSYNYWGQGTQVTLSS | high polyreactivity
21 | QVQLVESGGGLVQAGGSLRLSCAASGRIFAVYVMGWYRQAPGKERELVAAISQSGGRTYYADSVKGRFTISRDNAKNTVYLQMNSLKPEDTAVYYCNTVTSRATNFSGFGYWGQGTQVTVSS | high polyreactivity
22 | QVQLVESGGGLVQAGGSLRLSCAASGRIFAWYAMGWYRQAPGKERELVAAISDSGGSTYYADSVKGRFTISRDNAKNTVYLQMNSLKPEDTAVYYCAADQVVYSAYWSDHYDYWGQGTQVTVSS | low polyreactivity

Row | Sequence | polyreactivity (PSR sort gate)
23 | QVQLVESGGGLVQAGGSLRLSCAASGRIFAYYAMGRYRQAPGKERELVAAITRSGARTYYADSVKGRFTISRDNAKNTVYLQMNSLKPEDTAVYYCAAEGVRIGTRYDYWGQGTQVTVSS | high polyreactivity
24 | QVQLVESGGGLVQAGGSLRLSCAASGRIFAYYAMGWYRQAPGKERELVAAINSNGGSTYYADSVKGRFTISRDNAKNTVYLQLNSLKPEDTAVYYCAAGARYKMGYWGQGTQVTVSS | high polyreactivity
25 | QVQLVESGGGLVQAGGSLRLSCAASGRIFAYYAMGWYRQAPGKERELVAAISSSGVSTSYADSVKGRFTISRDNAKNTVYLQMNSLKPEDTAVYYCAASPGGRPYFNHDSWGQGTQVTVSS | low polyreactivity
26 | QVQLVESGGGLVQAGGSLRLSCAASGRIFAYYAMGWYRQAPGKERELVAAITRSGARTYYADSVKGRFTISRDNAKNTVYLQMNSLKPEDTAVYYCAAEGVRIGTRYDYWGQGTQVTVSS | high polyreactivity
27 | QVQLVESGGGLVQAGGSLRLSCAASGRIFAYYAMGWYRQAPGKERELVAGISKSGGRTYYADSVKGRFTISRDNAKNTVYLQMNSLKPEDTAVYYCAVESYRRYYYWGQGTQVTVSS | high polyreactivity
28 | QVQLVESGGGLVQAGGSLRLSCAASGRIFCTNAMGWYRHEPGKERELVADITSGGSTNYADSVKGRFTISRDNAKNTVYLQMNSLKPEDTAVYSCAADVIGDLRWYRDEYWGQGTQVTVSS | low polyreactivity
29 | QVQLVESGGGLVQAGGSLRLSCAASGRIFDAKVMGWYRQAPGKERELVAAISASAGSTSYADSVKGRFTISRDNAKNTVYLQMNSLKPEDTSVYYCAADPYQLWHYYYFGMDYWGQGTQVTVSS | low polyreactivity
30 | QVQLVESGGGLVQAGGSLRLSCAASGRIFDDNAMGWYRQAPGKERELVADINNATSTNYADSVKGRFTISRDNAKNTVYLQMNSLKPEDTAVYYCAADDYIYYRILGDSFVYKAYGYWGQGTQVTVSS | low polyreactivity
31 | QVQLVESGGGLVQAGGSLRLSCAASGRIFDDYAMGWYRQAPGKERELVAAIRSGGNTNYADSVKGRFTISRDNAKNTVYLQMNSLKPEDTADYYCAADTWFRAGYFVVYYDYWGQGTQVTVSS | low polyreactivity
32 | QVQLVESGGGLVQAGGSLRLSCAASGRIFDGNARGWYIQAPGKERELVAAISRNGGTYYADSVKGRFTISRDNAKNTVYLQMNSLKPEDTAVYYCAADPSSVGYHVEYDYWGQGTQVTVSS | low polyreactivity
33 | QVQLVESGGGLVQAGGSLRLSCAASGRIFDGYAIGWYRQAPGKERDLVAAISWGGGSTYYADSVKGRFTISRDNAKNTVYLQMNSLKPDDTAVYYCAGDGIWAREMDYWGQGTQVTVSS | low polyreactivity
34 | QVQLVESGGGLVQAGGSLRLSCAASGRIFDGYAIGWYRQAPGKERELVAAISSRGGRTYYADSVKGRFTISRDNAKNTVYLQMNSLKPEDTAVYYCAAVDPYGEGDYWGQGTQVTVSS | low polyreactivity
35 | QVQLVESGGGLVQAGGSLRLSCAASGRIFDHNAMGWYRQAPGKERELVAAINYSDDSTYYADSVKGRFTISRDNAKNTVYLQMNSLKPEDTAVYYCNADVGSEYSDKYDYWGQGTQVTVSS | low polyreactivity
36 | QVQLVESGGGLVQAGGSLRLSCAASGRIFDINAMGWYRQAPGKERELVAAINYNGSSTYYADSVKGRFTISRDNAKNTVYLEMNSLKPEDTAVYYCATEQVDVYTYDYWGQGTQVTVSS | high polyreactivity
37 | QVQLVESGGGLVQAGGSLRLSCAASGRIFDKYAMGWYRQAPGKERELVAAIDWSGGSTYYADSVKGRFTISRDNAKNTVYLQMNSLKPEDTAVYYCAAYWYYEDGQSEARLYGYDYWGQGTQVTVSS | low polyreactivity
38 | QVQLVESGGGLVQAGGSLRLSCAASGRIFDNYVMGWYRQAPGKERELVAAISSGGGTYYADSVKGRFTISRDNAKNTVYLQMNSLKPEDTAVYYCAKRRVYDRSFGRYDYWGQGTQVTVSS | low polyreactivity
39 | QVQLVESGGGLVQAGGSLRLSCAASGRIFDPYAMGWYRQAPGKERELVASISWSGGRTYYADSVKGRFTISRDNAKNTVYLQMNSLKPEDTAVYYCAARQWYRYKVRFDYWGQGTQVTVSS | high polyreactivity
40 | QVQLVESGGGLVQAGGSLRLSCAASGRIFDQYAMGWYRQAPGKERELVAVISSSGTTNYADSVKGRFTISRDNAKNTVYLQMNSLKPEDTAVYYCAARRQSWFVAAHMDYWGQGTQVTVSS | low polyreactivity
41 | QVQLVESGGGLVQAGGSLRLSCAASGRIFDVYAMGWYRQAPGKERELVATITGSGGGTYYADSVKGRFTISRDNAKNPVYLQMNSLKPEDTADYYCAADYYPTYAYYVSNVGYDYWGQGTQVTVSS | low polyreactivity
42 | QVQLVESGGGLVQAGGSLRLSCAASGRIFDWNMGWYRQAPGKDRELVAGITFSVDSTYYADSVKGRFTISRDNAKNTVYLQMNSLKPEDTAYWGQGTQVTVST | low polyreactivity
43 | QVQLVESGGGLVQAGGSLRLSCAASGRIFDYNAMGWYRQAPGKERELVAAISSRGGRTYYADSVKGRFTISRDNAKNTVYLQMNSLKPEDTAVYYCNTGWATDADDYWGQGTQVTVSS | high polyreactivity
